Data set [1] deals with T1, Human ALCAM (28–501)-6xhistidine tag (human, UniProt Q13740 28-501).
T1 construct: human ALCAM, residues 28-501, all five extracellular immunoglobulin domains; also called hALCAM; source: CHO cells, in-house, purified (Ni-NTA agarose)
T1 sequence (looked up): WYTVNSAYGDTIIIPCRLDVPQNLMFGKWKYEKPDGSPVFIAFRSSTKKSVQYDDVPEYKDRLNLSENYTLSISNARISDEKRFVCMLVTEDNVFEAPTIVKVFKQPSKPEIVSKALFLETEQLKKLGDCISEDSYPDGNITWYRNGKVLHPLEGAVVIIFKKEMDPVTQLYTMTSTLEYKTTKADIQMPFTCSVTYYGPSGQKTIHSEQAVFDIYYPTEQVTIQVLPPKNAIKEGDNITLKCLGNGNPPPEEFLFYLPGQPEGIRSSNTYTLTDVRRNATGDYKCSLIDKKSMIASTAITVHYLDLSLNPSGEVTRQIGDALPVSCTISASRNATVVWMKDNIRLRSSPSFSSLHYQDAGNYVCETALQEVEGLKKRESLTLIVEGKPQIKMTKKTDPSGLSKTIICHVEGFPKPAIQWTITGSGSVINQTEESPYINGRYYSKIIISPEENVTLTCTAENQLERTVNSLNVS
The data set can be described thus: ELISA; CD6 competition ELISA: plate coated with hALCAM (5 µg/mL in PBS); fixed murine CD6-Fc (0.25 µg/mL) with antibody 2000 nM to 0.002 nM in PBS, 2 h RT; bound CD6-Fc detected with HRP-coupled antihuman IgG. As to conditions: both partners purified.

Data set [2] has as its target T2, Human ALCAM (28–501)-6xhistidine tag (human, UniProt Q13740).
T2 construct: human ALCAM, residues 28-501, all five extracellular immunoglobulin domains; also called hALCAM; source: CHO cells, in-house, purified (Ni-NTA agarose)
The data set can be described thus: SPR; BiaCore3000; CM5 chip coated with hALCAM at 800 RU; flow 10 µL/min; single-cycle, sequential injection of scFv at 30, 60, 120 and 240 nM. As to conditions: both partners purified. A general note: In SPR one partner is held on a chip, and binding of the other changes the refractive index at the surface.

In data set [3] the target is T2, Human ALCAM (28–501)-6xhistidine tag. The data set can be described thus: ELISA; CD6 competition ELISA: plate coated with hALCAM (5 µg/mL in PBS); fixed murine CD6-Fc (0.25 µg/mL) with antibody 2000 nM to 0.002 nM in PBS, 2 h RT; bound CD6-Fc detected with HRP-coupled antihuman IgG. The following applies: both partners purified.
The target is the same in data set [4]. The description is as above. As to conditions: both partners purified. This is another data set of the same source.
Another data set concerns the target T3, Monkey ALCAM (Macaca fascicularis (cynomolgus monkey), UniProt G7NZQ8).
T3 construct: cynomolgus monkey ALCAM, recombinant; also called cynomolgus monkey ALCAM; source: bought: R&D systems (10027-AL-100)
The data set can be described thus: ELISA; plate coated with human, mouse, rat or monkey ALCAM (5 µg/mL in PBS); scFv V2D7 1:3 dilutions from 1000 nM to 0.051 nM in PBS, 2 h RT; detected with HRP-coupled protein A. The following applies: both partners purified. (In general: ELISA stands for enzyme-linked immunosorbent assay.)

A further data set has as its target T4, Rat ALCAM (Rattus norvegicus, UniProt O35112).
T4 construct: rat ALCAM, recombinant; source: bought: Sino Biological (80221-R08H-50)
The description is as above. The following applies: both partners purified.

The target in a further data set is Murine ALCAM (Mus musculus, UniProt Q61490). The data set can be described thus: cell-based or functional assay.
Chain of Murine ALCAM (Q61490 28-527): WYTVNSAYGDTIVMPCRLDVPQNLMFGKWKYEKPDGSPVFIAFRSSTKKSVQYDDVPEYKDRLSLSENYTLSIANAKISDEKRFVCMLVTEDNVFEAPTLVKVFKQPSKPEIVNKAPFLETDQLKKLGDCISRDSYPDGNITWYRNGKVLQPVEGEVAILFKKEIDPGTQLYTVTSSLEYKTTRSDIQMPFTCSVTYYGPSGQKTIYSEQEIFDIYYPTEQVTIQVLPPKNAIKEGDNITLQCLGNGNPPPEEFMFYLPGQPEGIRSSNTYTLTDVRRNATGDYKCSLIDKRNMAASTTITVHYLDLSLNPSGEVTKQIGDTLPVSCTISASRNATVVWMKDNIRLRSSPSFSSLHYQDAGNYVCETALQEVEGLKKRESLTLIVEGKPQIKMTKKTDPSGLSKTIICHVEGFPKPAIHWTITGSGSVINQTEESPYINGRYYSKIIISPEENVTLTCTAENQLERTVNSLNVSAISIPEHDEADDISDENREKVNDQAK

Where a chain is given by its changes, count along the chain named.

Consider 7 molecules from PMC10385607, “Optimization and Characterization of Novel ALCAM-Targeting Antibody Fragments for Transepithelial Delivery” (Pharmaceutics, 2023).

T4 sequence (O35112 28-527): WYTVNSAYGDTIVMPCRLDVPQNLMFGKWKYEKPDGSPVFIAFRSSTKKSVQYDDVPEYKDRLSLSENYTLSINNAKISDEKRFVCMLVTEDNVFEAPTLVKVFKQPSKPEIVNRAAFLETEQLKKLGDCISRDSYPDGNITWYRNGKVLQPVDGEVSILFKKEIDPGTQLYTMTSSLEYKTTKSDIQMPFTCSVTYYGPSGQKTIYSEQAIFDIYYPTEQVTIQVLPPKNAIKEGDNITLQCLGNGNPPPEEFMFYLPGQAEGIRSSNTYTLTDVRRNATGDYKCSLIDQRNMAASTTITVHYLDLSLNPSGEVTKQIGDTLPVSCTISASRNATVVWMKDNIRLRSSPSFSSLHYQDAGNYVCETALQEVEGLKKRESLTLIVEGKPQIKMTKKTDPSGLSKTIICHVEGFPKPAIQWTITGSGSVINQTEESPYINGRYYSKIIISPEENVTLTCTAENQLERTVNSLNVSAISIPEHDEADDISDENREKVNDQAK

B1: Murine CD6-Fc (Fc fusion, mouse, UniProt Q61003 17-398, looked up)
chain: GLPSPAPSGQHKNGTIPNMTLDLEERLGIRLVNGSSRCSGSVKVLLESWEPVCAAHWNRAATEAVCKALNCGDSGKVTYLMPPTSELPPGATSGNTSSAGNTTWARAPTERCRGANWQFCKVQDQECSSDRRLVWVTCAENQAVRLVDGSSRCAGRVEMLEHGEWGTVCDDTWDLQDAHVVCKQLKCGWAVKALAGLHFTPGQGPIHRDQVNCSGTEAYLWDCPGRPGDQYCGHKEDAGVVCSEHQSWRLTGGIDSCEGQVEVYFRGVWSTVCDSEWYPSEAKVLCRSLGCGSAVARPRGLPHSLDGRMYYSCKGQEPALSTCSWRFNNSNLCSQSRAARVVCSGSQRHLNLSTSEVPSRVPVTIESSVPVSVKDKDSQGLT
notes: mouse CD6, recombinant Fc fusion; source: bought: R&D Systems (727-CD)
In the case of B1, in data set [1], the binding result is “binds”.

B2: scFv IF8 (scFv, V domains shown)
VH: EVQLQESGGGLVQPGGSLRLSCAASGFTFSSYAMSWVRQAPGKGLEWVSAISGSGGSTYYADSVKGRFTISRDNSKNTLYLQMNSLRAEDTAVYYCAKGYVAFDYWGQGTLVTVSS
VL: SSELTQDPAVSVALGQTVRITCQGDSLRSYYASWYQQKPGQAPVLVIYGKNNRPSGIPDRFSGSSSGNTASLTITGAQAEDEADYYCNSSPPFSAEVVFGGGTKLTVL
notes: VH of IF8 (heavy chain DP47, ETH-2 library); VL of IF8 (light chain DPL16, ETH-2 library); CDR1 QGDSLRSYYAS, CDR2 GKNNRPS, CDR3 NSSPPFSAEVV; Only CDRs and linker are printed; also called IF8 scFv; parental scFv IF8; source: CHO cells, transient gene expression, purified (Protein A)
As a reminder, the Kd is the equilibrium constant for the complex coming apart. What is called IC50 is the point on the concentration scale where inhibition reaches its midpoint. As to B2, the Kd in data set [2] was 24.1 nM. This molecule also registered an IC50 in data set [3] of 63.6 nM.

B3: scFv V2D7 (scFv, V domains shown)
VH: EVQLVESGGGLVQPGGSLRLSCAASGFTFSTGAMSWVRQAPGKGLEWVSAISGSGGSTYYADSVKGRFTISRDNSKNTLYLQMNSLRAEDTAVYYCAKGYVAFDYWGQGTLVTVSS
VL: SSVLTQPPSVSVAPGQTARITCQGDSLRSGYASWYQQKPGQAPVLVVYGKNNRPSGIPERFSGSSSGNTATLTISRVEAGDEADYYCNSSPPFSAEVVFGGGTKLTVL
notes: VH of V2D7: as the VH of OPT with changed CDR1; linker; VL of V2D7: as the VL of OPT with changed CDR1; CDR1 QGDSLRSGYAS, CDR2 GKNNRPS, CDR3 NSSPPFSAEVV; also called V2D7 scFv; source: CHO cells, transient gene expression, purified (Protein A)
In turn, B3 came in with an IC50 in data set [4] of 20.7 ± 11.8 nM. The binding result with Monkey ALCAM and with Rat ALCAM was “binds” throughout. Also, the “IC50 of DC transmigration across LEC monolayers (DC TM; blocks ALCAM–ALCAM between DCs and LECs)” value in the data set with Murine ALCAM was more than 100 nM.

B4: scFv V200G1 (scFv, V domains shown)
VH: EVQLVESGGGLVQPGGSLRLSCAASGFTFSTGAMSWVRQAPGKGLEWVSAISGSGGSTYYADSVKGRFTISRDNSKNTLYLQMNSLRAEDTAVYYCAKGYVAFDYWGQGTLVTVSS
VL: B3 VL with N51T, N52G
notes: VH of V200G1: as the VH of V2D7, i.e. the VH of OPT with changed CDR1; linker; VL of V200G1: as the VL of OPT with changed CDR1 and CDR2; CDR1 QGDSLRSGYAS, CDR2 GKTGRPS, CDR3 NSSPPFSAEVV; source: CHO cells, transient gene expression, purified (Protein A)
Consider B4, for which the binding result in data set [2] is reported as “binds”.

B5: scFv OPT (scFv, V domains shown)
VH: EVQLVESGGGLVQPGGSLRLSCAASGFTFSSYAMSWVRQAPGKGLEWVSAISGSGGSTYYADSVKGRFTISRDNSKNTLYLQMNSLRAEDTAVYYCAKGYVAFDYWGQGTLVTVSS
VL: B3 VL with G30Y
notes: linker; CDR1 QGDSLRSYYAS, CDR2 GKNNRPS, CDR3 NSSPPFSAEVV; Only CDRs and linker are printed; also called framework-optimized scFv OPT; source: CHO cells, transient gene expression, purified (Protein A)
With B5, in data set [2], the “fold improvement of Kd against scFv IF8” value worked out at 2 fold.

B6: scFv V20C10NC (scFv, V domains shown)
VH: EVQLVESGGGLVQPGGSLRLSCAASGFTFSTGAMSWVRQAPGKGLEWVSAISGTGGTTYYADSVKGRFTISRDNSKNTLYLQMNSLRAEDTAVYYCAKGYVAFDYWGQGTLVTVSS
VL: B3 VL with G49P, N51M, N52S
notes: VH of V20C10NC: as the VH of OPT with changed CDR1 and CDR2; linker; VL of V20C10NC: as the VL of OPT with changed CDR1 and CDR2; CDR1 QGDSLRSGYAS, CDR2 PKMSRPS, CDR3 NSSPPFSAEVV; Histidines in the CDR2 loops of clone V20C10 were mutated to threonine (VH) and serine (VL), giving V20C10NC; source: CHO cells, transient gene expression, purified (Protein A)
In the case of B6, the binding result in data set [2] is recorded as “binds”.

B7: db V20C10NC (other)
VH: B6 VH
VL: B3 VL with G49P, N51M, N52S
notes: linker; Bivalent two-chain diabody; also called V20C10NC in db format; source: CHO cells, transient gene expression, purified (Protein A)
With B7, the binding result in data set [3] was “binds”.
